US9249224B2 (RINAT NEUROSCIENCE CORP., priority 2011, dated 2016)
“And” between values parts separate entries of the source, which are not always exact repeats. Identical values can stand only once.

Tested on: cyno GHR
Experiment: Biacore kinetics and affinity, captured IgG, cyno GHR analyte, 25° C.
Type: binding, cynomolgus monkey
Conditions: IgG immobilized by capture
Procedure: The affinity of a mouse anti-GHR antibody, Ab13, to human and cyno GHR was measured on a Biacore™ 2000 biosensor (GE Lifesciences™, Piscataway N.J.). An anti-mouse Ig sensor surface was prepared using a Biacore™ CM5 chip and reagents from the Biacore™ mouse antibody capture kit (GE Lifesciences™, Catalog# BR-1008-38), using instructions provided by the manufacturer.
The kinetics assay was run using a kinetic titration methodology as described in Karlsson et al., 2006, Anal. Biochem 349, 136-147. The mouse antibody, Ab13, was captured onto downstream flow cells at 0.5 μg/mL at a flow rate of 5 μL/min for 1 minute, 2 minutes and 4 minutes on flow cells 2, 3 and 4 respectively. Flow cell 1 was used as a reference surface. […]
The affinities of a humanized GHR antibody, SS1, and a chimeric molecule comprising the Fab of Ab13 fused to a human Fc domain (“Ab13-hFc”) to human and cyno GHR was measured on a Biacore™ 2000 biosensor (GE Lifesciences™ Piscataway N.J.). […]
The kinetics assay was run using a methodology with varying dissociation times as described in Katsamba et al., 2006, Anal. Biochem 352, 208-221. […] After the analyte injection, dissociation was monitored for 30 minutes (for the 400 nM GHR cycle) or 30 seconds (all other cycles) followed by regeneration of all flow cells with two 30-second injections of 75 mM phosphoric acid. […]

Sequence of cyno GHR (as listed by the source): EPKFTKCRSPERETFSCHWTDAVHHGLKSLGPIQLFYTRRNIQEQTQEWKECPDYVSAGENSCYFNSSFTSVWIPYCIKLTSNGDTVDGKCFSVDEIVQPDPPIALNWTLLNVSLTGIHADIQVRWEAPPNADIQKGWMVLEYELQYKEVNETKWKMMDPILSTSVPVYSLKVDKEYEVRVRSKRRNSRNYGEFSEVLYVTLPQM

B1: SS1: humanized GHR antagonist antibody; VL SEQ ID NO: 7, VH SEQ ID NO: 8; hIgG2Δa heavy chain SEQ ID NO: 134, light chain SEQ ID NO: 135 (antibody)
heavy: EVQLVESGGGLVKPGGSLRLSCAASGFTFSDAWMDWVRQAPGKGLEWVAEIRSKANYHATYYAESVKGRFTISRDDSKNTLYLQMNSLKTEDTAVYYCTLIRDYWGQGTLVTVSSASTKGPSVFPLAPCSRSTSESTAALGCLVKDYFPEPVTVSWNSGALTSGVHTFPAVLQSSGLYSLSSVVTVPSSNFGTQTYTCNVDHKPSNTKVDKTVERKCCVECPPCPAPPVAGPSVFLFPPKPKDTLMISRTPEVTCVVVDVSHEDPEVQFNWYVDGVEVHNAKTKPREEQFNSTFRVVSVLTVVHQDWLNGKEYKCKVSNKGLPSSIEKTISKTKGQPREPQVYTLPPSREEMTKNQVSLTCLVKGFYPSDIAVEWESNGQPENNYKTTPPMLDSDGSFFLYSKLTVDKSRWQQGNVFSCSVMHEALHNHYTQKSLSLSPGK
light: EIVLTQSPGTLSLSPGERATLSCTATSSVSSSYLNWYQQKPGQAPRLLIYSTSNLASGIPDRFSGSGSGTDFTLTISRLEPEDFAVYYCHQYHRSTPTFGGGTKVEIKRTVAAPSVFIFPPSDEQLKSGTASVVCLLNNFYPREAKVQWKVDNALQSGNSQESVTEQDSKDSTYSLSSTLTLSKADYEKHKVYACEVTHQGLSSPVTKSFNRGEC
modifications: Humanized and/or affinity matured antibody sequence
  ka: 89000 M⁻¹ s⁻¹ and 81000 M⁻¹ s⁻¹
  kd: 0.00011 s⁻¹ and 0.0001 s⁻¹
